According to IntAct's records for PubMed 21358628:

B1: DNA-directed RNA polymerase III subunit RPC3 (Homo sapiens), Q9BUI4 (parent)
chain: MTQAEIKLCSLLLQEHFGEIVEKIGVHLIRTGSQPLRVIAHDTGTSLDQVKKALCVLVQHNLVSYQVHKRGVVEYEAQCSRVLRMLRYPRYIYTTKTLYSDTGELIVEELLLNGKLTMSAVVKKVADRLTETMEDGKTMDYAEVSNTFVRLADTHFVQRCPSVPTTENSDPGPPPPAPTLVINEKDMYLVPKLSLIGKGKRRRSSDEDAAGEPKAKRPKYTTDNKEPIPDDGIYWQANLDRFHQHFRDQAIVSAVANRMDQTSSEIVRTMLRMSEITTSSSAPFTQPLSSNEIFRSLPVGYNISKQVLDQYLTLLADDPLEFVGKSGDSGGGMYVINLHKALASLATATLESVVQERFGSRCARIFRLVLQKKHIEQKQVEDFAMIPAKEAKDMLYKMLSENFMSLQEIPKTPDHAPSRTFYLYTVNILSAARMLLHRCYKSIANLIERRQFETKENKRLLEKSQRVEAIIASMQATGAEEAQLQEIEEMITAPERQQLETLKRNVNKLDASEIQVDETIFLLESYIECTMKRQ
B2: DNA-directed RNA polymerase III subunit RPC3 (Homo sapiens), Q9BUI4 (parent)
chain: B1 chain
partner: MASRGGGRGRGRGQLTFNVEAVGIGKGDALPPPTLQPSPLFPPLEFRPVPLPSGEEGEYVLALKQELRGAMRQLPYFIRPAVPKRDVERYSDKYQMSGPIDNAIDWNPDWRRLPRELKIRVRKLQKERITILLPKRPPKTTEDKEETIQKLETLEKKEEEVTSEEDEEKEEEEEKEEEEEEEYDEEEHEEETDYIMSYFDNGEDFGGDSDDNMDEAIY

Variants of: B1
Settings: with rpc7_human POLR3G

| Variant | effect of a mutation on the interaction |
| --- | --- |
| MTQAEIKLCSLLLQEHFGEIVEKIGVHLIRTGSQPLRVIAHDTGTSLDQVKKALCVLVQHNLVSYQVHKRGVVEYEAQCSRVLRMLRYPRYIYTTKTLYSDTGELIVEELLLNGKLTMSAVVKKVADRLTETMEDGKTMDYAEVSNTFVRLADTHFVQRCPSVPTTENSDPGPPPPAPTLVINEKDMYLVPKLSLIGKGKRRRSSDEDAAGEPKAKRPKYTTDNKEPIPDDGIYWQANLDRFHQHFRDQAIVSAVANRMDQTSSEIVRTMLRMSEITTSSSAPFTQPLSSNEIFRSLPVGYNISKQVLDQYKTLLADDPLEFVGKSGDSGGGMYVINLHKALASLATATLESVVQERFGSRCARIFRLVLQKKHIEQKQVEDFAMIPAKEAKDMLYKMLSENFMSLQEIPKTPDHAPSRTFYLYTVNILSAARMLLHRCYKSIANLIERRQFETKENKRLLEKSQRVEAIIASMQATGAEEAQLQEIEEMITAPERQQLETLKRNVNKLDASEIQVDETIFLLESYIECTMKRQ [L312K] | disrupting interaction |

Variants of: B2
Settings: with rpc7l_human POLR3GL

| Variant | effect of a mutation on the interaction |
| --- | --- |
| MTQAEIKLCSLLLQEHFGEIVEKIGVHLIRTGSQPLRVIAHDTGTSLDQVKKALCVLVQHNLVSYQVHKRGVVEYEAQCSRVLRMLRYPRYIYTTKTLYSDTGELIVEELLLNGKLTMSAVVKKVADRLTETMEDGKTMDYAEVSNTFVRLADTHFVQRCPSVPTTENSDPGPPPPAPTLVINEKDMYLVPKLSLIGKGKRRRSSDEDAAGEPKAKRPKYTTDNKEPIPDDGIYWQANLDRFHQHFRDQAIVSAVANRMDQTSSEIVRTMLRMSEITTSSSAPFTQPLSSNEIFRSLPVGYNISKQVLDQYKTLLADDPLEFVGKSGDSGGGMYVINLHKALASLATATLESVVQERFGSRCARIFRLVLQKKHIEQKQVEDFAMIPAKEAKDMLYKMLSENFMSLQEIPKTPDHAPSRTFYLYTVNILSAARMLLHRCYKSIANLIERRQFETKENKRLLEKSQRVEAIIASMQATGAEEAQLQEIEEMITAPERQQLETLKRNVNKLDASEIQVDETIFLLESYIECTMKRQ [L312K] | disrupting interaction |
